Data taken from the supplement of paper PMC9112550, “Optimization of the antimicrobial peptide Bac7 by deep mutational scanning” (BMC Biology, 2022).

tested on: Escherichia coli TOP10; experiment: shrunken log2 fold change of peptide-encoding DNA abundance (4.5 h post-induction vs induction); higher = less antimicrobial activity (less host growth inhibition); conditions: time post-induction: 4.5 h; library: site-saturation at positions 5, 18, 19, 20
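Further: peptides expressed intracellularly from a pBAD plasmid library in pooled LB shake-flask culture, induced with 0.3% L-arabinose, DNA abundance read by NGS, three biological replicates, DESeq2 with apeglm shrinkage.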

| Sequence | shrunken log2 fold change |
| --- | --- |
| RRIRHRPPRLPRPRPRPYNWPRP | -0.928 |
| RRIRWRPPRLPRPRPRPVRSPRP | 0.239 |
| RRIRTRPPRLPRPRPRPHWSPRP | -0.147 |
| RRIRTRPPRLPRPRPRPVDSPRP | 0.0391 |
| RRIRFRPPRLPRPRPRPYTCPRP | -0.22 |
| RRIRSRPPRLPRPRPRPYIDPRP | -0.071 |
| RRIRMRPPRLPRPRPRPKTCPRP | 0.12 |
| RRIRKRPPRLPRPRPRPGNSPRP | -0.0266 |
| RRIRNRPPRLPRPRPRPRTRPRP | 0.368 |
| RRIRHRPPRLPRPRPRPGWAPRP | 0.344 |
| RRIRFRPPRLPRPRPRPFWNPRP | -0.00687 |
| RRIRSRPPRLPRPRPRPNVQPRP | -0.335 |
| RRIRARPPRLPRPRPRPLIGPRP | 0.107 |
| RRIRIRPPRLPRPRPRPGITPRP | -0.182 |
| RRIRDRPPRLPRPRPRPTGFPRP | 0.0286 |
| RRIRRRPPRLPRPRPRPVDQPRP | 0.348 |
| RRIRIRPPRLPRPRPRPEWTPRP | -0.0261 |
| RRIRQRPPRLPRPRPRPDSPPRP | 0.0174 |
| RRIRERPPRLPRPRPRPLPRPRP | 0.179 |
| RRIRNRPPRLPRPRPRPPHFPRP | 0.0188 |
| RRIRVRPPRLPRPRPRPRYDPRP | -0.0252 |
| RRIRHRPPRLPRPRPRPKVKPRP | 0.235 |
| RRIRTRPPRLPRPRPRPAASPRP | 0.169 |
| RRIRPRPPRLPRPRPRPHDIPRP | 0.152 |
| RRIRMRPPRLPRPRPRPKWGPRP | 0.729 |

| Sequence | shrunken log2 fold change |
| --- | --- |
| RRIRDRPPRLPRPRPRPRYKPRP | -0.202 |
| RRIRIRPPRLPRPRPRPMLFPRP | -0.328 |
| RRIRRRPPRLPRPRPRPDRWPRP | 0.957 |
| RRIRHRPPRLPRPRPRPAYKPRP | -0.102 |
| RRIRVRPPRLPRPRPRPLDCPRP | -0.0035 |
| RRIRFRPPRLPRPRPRPARCPRP | 0.44 |
| RRIRMRPPRLPRPRPRPMDFPRP | -0.00448 |
| RRIRTRPPRLPRPRPRPNVGPRP | 0.202 |
| RRIRQRPPRLPRPRPRPSRTPRP | -0.29 |
| RRIRIRPPRLPRPRPRPDISPRP | -0.0405 |
| RRIRHRPPRLPRPRPRPFWRPRP | -0.0343 |
| RRIRARPPRLPRPRPRPAEAPRP | 0.161 |
| RRIRSRPPRLPRPRPRPDKYPRP | -0.845 |
| RRIRQRPPRLPRPRPRPTCGPRP | 0.285 |
| RRIRDRPPRLPRPRPRPHKLPRP | 0.00695 |
| RRIRKRPPRLPRPRPRPSNDPRP | 0.257 |
| RRIRARPPRLPRPRPRPSNAPRP | 0.133 |
| RRIRCRPPRLPRPRPRPNSTPRP | -0.76 |
| RRIRERPPRLPRPRPRPKGAPRP | 0.216 |
| RRIRIRPPRLPRPRPRPAGAPRP | 0.359 |
| RRIRMRPPRLPRPRPRPTFPPRP | 0.0878 |
| RRIRARPPRLPRPRPRPTTVPRP | 0.45 |
| RRIRARPPRLPRPRPRPPMVPRP | 0.0322 |
| RRIRERPPRLPRPRPRPMAYPRP | -0.0427 |
| RRIRMRPPRLPRPRPRPRQPPRP | 0.805 |

| Sequence | shrunken log2 fold change |
| --- | --- |
| RRIRRRPPRLPRPRPRPESGPRP | 0.545 |
| RRIRNRPPRLPRPRPRPDVLPRP | -0.0481 |
| RRIRMRPPRLPRPRPRPLKIPRP | -0.0474 |
| RRIRMRPPRLPRPRPRPIHCPRP | -0.105 |
| RRIRTRPPRLPRPRPRPYQQPRP | 0.0675 |
| RRIRCRPPRLPRPRPRPGPCPRP | 0.0993 |
| RRIRFRPPRLPRPRPRPMPPPRP | 0.55 |
| RRIRSRPPRLPRPRPRPNHMPRP | -0.236 |
| RRIRDRPPRLPRPRPRPDNKPRP | -0.413 |
| RRIRFRPPRLPRPRPRPRFNPRP | -0.196 |
| RRIRRRPPRLPRPRPRPCMHPRP | 0.105 |
| RRIRMRPPRLPRPRPRPKLTPRP | 1.14 |
| RRIRKRPPRLPRPRPRPRHAPRP | 0.727 |
| RRIRWRPPRLPRPRPRPLVWPRP | 0.426 |
| RRIRTRPPRLPRPRPRPNCMPRP | -0.16 |
| RRIRNRPPRLPRPRPRPINQPRP | -0.14 |
| RRIRGRPPRLPRPRPRPHYAPRP | -0.0664 |
| RRIRLRPPRLPRPRPRPQIFPRP | -0.165 |
| RRIRSRPPRLPRPRPRPGHLPRP | -0.236 |
| RRIRFRPPRLPRPRPRPSWTPRP | -0.561 |
| RRIRKRPPRLPRPRPRPDRAPRP | 0.115 |
| RRIRLRPPRLPRPRPRPLSGPRP | 0.15 |
| RRIRERPPRLPRPRPRPHWYPRP | -1.19 |
| RRIRWRPPRLPRPRPRPIERPRP | 0.0857 |
| RRIRLRPPRLPRPRPRPDYHPRP | -0.576 |
